Our source for the protein stability index values is the supplement of paper PMC10567573.

The chains are these.
B1: ZNF207 (parent)
chain: YQGGPPRPPMGMRPPVMSQGGRY
B2: SCNN1D (parent)
chain: FYRLYQDLETHRLPCTSRCPRPCR
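Further: lentivirally expressed fusions sorted by FACS into six bins by GFP to DsRed ratio, PSI derived from sequencing read proportions per bin multiplied by bin number.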

One series covers variants of B1. Description: protein stability index of a GFP-peptide fusion (GPS, HEK-293T) (PSI 1-6); higher = more stable. The conditions noted are these: c terminus: native.
For YQGGPPRPPMGVRPPVMSQGGRY [M12V], the protein stability index was found to be 2.79. As to YQGGPPRPPMGERPPVMSQGGRY [M12E], the protein stability index was found to be 2.88.

As for YQGGPPRPPMGIRPPVMSQGGRY [M12I], the protein stability index came to 2.25.

As to YQGGPPRPPMGRRPPVMSQGGRY [M12R], the protein stability index was determined as 1.35.

YQGGPPRPPMGMRPPVMYQGGRY [S18Y]: the protein stability index stood at 1.58. As for YQGGPPRPPMGMRPPVMWQGGRY [S18W], the protein stability index was found to be 2.56.

Turning to YQGGPPRPPMGMRPPVMEQGGRY [S18E], the protein stability index worked out at 2.72. In the case of YQGGPPRPPMGMRPPVMRQGGRY [S18R], the protein stability index turned out to be 2.2. Still for that read-out and setting: as for YQGGPPRPPMGMRPPVMHQGGRY [S18H], the figure is 1.44; as for YQGGPPRPPMGMRPPVMDQGGRY [S18D], 2.04; as for YQGGPPRPPMGMRPPVMNQGGRY [S18N], 2.13. Regarding YQGGPPRCPMGMRPPVMSQGGRY [P8C], the protein stability index was 1. The same measure, in the same setting: as for YQGGPPRSPMGMRPPVMSQGGRY [P8S], the figure is 1.95; as for YQGGPPRNPMGMRPPVMSQGGRY [P8N], 2.49. Take YQGGPPRAPMGMRPPVMSQGGRY [P8A]: the protein stability index came out at 1.09.

As for YQGGPPRIPMGMRPPVMSQGGRY [P8I], the protein stability index is 2.2.

Take YQGGPPRPKMGMRPPVMSQGGRY [P9K]: the protein stability index came out at 1.73. On the same count and under the same terms, as for YQGGPPRPAMGMRPPVMSQGGRY [P9A], the figure is 1.83; as for YQGGPPRPWMGMRPPVMSQGGRY [P9W], 4.64; as for YQGGPPRPVMGMRPPVMSQGGRY [P9V], 1.68. On the same count and under the same terms, as for YQGGPPRPNMGMRPPVMSQGGRY [P9N], the figure is 1.44; as for YQGGPPRPLMGMRPPVMSQGGRY [P9L], 1.28; as for YQGGPPRPMMGMRPPVMSQGGRY [P9M], 1.12. Same read-out and setting: as for YQGGPPRPGMGMRPPVMSQGGRY [P9G], the figure is 2.84; as for YQGGPPRPTMGMRPPVMSQGGRY [P9T], 2.49. Take YQGGPPRPIMGMRPPVMSQGGRY [P9I]: the protein stability index stood at 2.91. Consider YQGGPPRPHMGMRPPVMSQGGRY [P9H], for which the protein stability index was 1.41. Still for that read-out and setting: under YQGGPPRPPMGMRPKVMSQGGRY [P15K] stands 1.09; under YQGGPPRPPMGMRPTVMSQGGRY [P15T], 1.61; under YQGGPPRPPMGMRPHVMSQGGRY [P15H], 2.71. Same read-out and setting: under YQGGPPRPPMGMRPVVMSQGGRY [P15V] stands 3.12. Still for that read-out and setting: under YQGGPPRPPMGMRPFVMSQGGRY [P15F] stands 1.58; under YQGGPPRPPMGMRPDVMSQGGRY [P15D], 2.27. As for YQGGPPRPPMGMRPNVMSQGGRY [P15N], the protein stability index is 1.72. Still for that read-out and setting: under YQKGPPRPPMGMRPPVMSQGGRY [G3K] stands 2.89; under YQIGPPRPPMGMRPPVMSQGGRY [G3I], 3.37. For YQQGPPRPPMGMRPPVMSQGGRY [G3Q], the protein stability index was 2.32. On the same count and under the same terms, under YQVGPPRPPMGMRPPVMSQGGRY [G3V] stands 1.43; under YQEGPPRPPMGMRPPVMSQGGRY [G3E], 2.33. On the same count and under the same terms, under YQAGPPRPPMGMRPPVMSQGGRY [G3A] stands 2.62; under YQSGPPRPPMGMRPPVMSQGGRY [G3S], 1.47; under YQNGPPRPPMGMRPPVMSQGGRY [G3N], 1.38.

With YQGGPPRPPMGMRPPVMSPGGRY [Q19P], the protein stability index stood at 1.9. Still for that read-out and setting: under YQGGPPRPPMGMRPPVMSKGGRY [Q19K] stands 2.18. Still for that read-out and setting: under YQGGPPRPPMGMRPPVMSTGGRY [Q19T] stands 2.39. Same read-out and setting: as for YQGGPPRPPMGMRPPVMSNGGRY [Q19N], the figure is 2.56; as for YQGGPPRPPMGMRPPVMSEGGRY [Q19E], 2.17. On to YQGGPPRPPMGMRPPVMSRGGRY [Q19R], for which the protein stability index came out at 2.17. The same measure, in the same setting: under YQGGPPRPPMGMRPPVMSHGGRY [Q19H] stands 4.08. The same measure, in the same setting: as for YQGGPPRPPMGMRPPVMSLGGRY [Q19L], the figure is 1.46; as for YNGGPPRPPMGMRPPVMSQGGRY [Q2N], 2.45.

With YPGGPPRPPMGMRPPVMSQGGRY [Q2P], the protein stability index stood at 1.72. On the same count and under the same terms, under YYGGPPRPPMGMRPPVMSQGGRY [Q2Y] stands 2.89; under YAGGPPRPPMGMRPPVMSQGGRY [Q2A], 2.19. The same measure, in the same setting: under YDGGPPRPPMGMRPPVMSQGGRY [Q2D] stands 2.16; under YMGGPPRPPMGMRPPVMSQGGRY [Q2M], 2.05.

YKGGPPRPPMGMRPPVMSQGGRY [Q2K]: the protein stability index was determined as 2.57. The same measure, in the same setting: under YQGGPPRPPMGMRGPVMSQGGRY [P14G] stands 2.35; under YQGGPPRPPMGMRCPVMSQGGRY [P14C], 2.27; under YQGGPPRPPMGMRKPVMSQGGRY [P14K], 1.43.

The variants in another series derive from B2. The series is described as above. The conditions noted are these: c terminus: a fixed tail appended.
For the variant FYLLYQDLETHRLPCTSRCPRPCR [R3L], the protein stability index was determined as 2. The same measure, in the same setting: under FYSLYQDLETHRLPCTSRCPRPCR [R3S] stands 2.42; under FYRLYQDLETHRLRCTSRCPRPCR [P14R], 2.09. Consider FYRLYQDLETHRLSCTSRCPRPCR [P14S], for which the protein stability index stood at 2.44. Still for that read-out and setting: as for FYRLYQDLETHRLPCTPRCPRPCR [S17P], the figure is 2.46. On the same count and under the same terms, as for FYRLYQDLETHRLPCTGRCPRPCR [S17G], the figure is 1.96; as for FYRQYQDLETHRLPCTSRCPRPCR [L4Q], 3.24; as for FYRHYQDLETHRLPCTSRCPRPCR [L4H], 3.23. In the case of FYRLYQDLETHSLPCTSRCPRPCR [R12S], the protein stability index was 3.51. The same measure, in the same setting: under FYRLYQDLETHVLPCTSRCPRPCR [R12V] stands 1.93. The same measure, in the same setting: as for FYRLYQDLETHRLPCTSRCPRPVR [C23V], the figure is 1.85; as for FYRLYQDLETLRLPCTSRCPRPCR [H11L], 1.95. Consider FYRLYQDLENHRLPCTSRCPRPCR [T10N], for which the protein stability index came to 2.4. On the same count and under the same terms, under FYRLYQDLESHRLPCTSRCPRPCR [T10S] stands 1.6. Same read-out and setting: as for FYRLYQDLERHRLPCTSRCPRPCR [T10R], the figure is 2.88; as for FYRLYQDLITHRLPCTSRCPRPCR [E9I], 2.06. Take FYRLYQDLETHRLPCTSRCPRPCT [R24T]: the protein stability index turned out to be 3.87. Same read-out and setting: as for FYRLYQDLETHRLPCTSRCPRPCS [R24S], the figure is 2.13. Still for that read-out and setting: under FYRLYQDLETHRLPCTSRCPRPCP [R24P] stands 2.35; under FYRLYQDLETHRLPCTSRCPRPCA [R24A], 2.2; under FYRLYQDLETHRLPCTSRCPRPCC [R24C], 1.77. On to RYRLYQDLETHRLPCTSRCPRPCR [F1R], for which the protein stability index was 2.92. Take FYRLYQDLETHRLPCTSRCPTPCR [R21T]: the protein stability index was determined as 2.1. Same read-out and setting: under FYRLYQDLETHRLPCTSRCPYPCR [R21Y] stands 2.71. On the same count and under the same terms, as for FYRLYQDLETHRLPCTSRCPLPCR [R21L], the figure is 2.21. Still for that read-out and setting: under FYRLYQDLETHRLPCTSRCPPPCR [R21P] stands 2.26; under FYRLLQDLETHRLPCTSRCPRPCR [Y5L], 3.17.

Take FYRLYQDLETHRLPCHSRCPRPCR [T16H]: the protein stability index came to 1.49. For FYRLYQDLETHRLPCFSRCPRPCR [T16F], the protein stability index was found to be 1.58. Still for that read-out and setting: under FYRLYQDLETHRLPCTSRCPRGCR [P22G] stands 2.15; under FYRLYQDLETHRLPCTSMCPRPCR [R18M], 2.29; under FYRLYQDIETHRLPCTSRCPRPCR [L8I], 2.41. As to FYRLYQDGETHRLPCTSRCPRPCR [L8G], the protein stability index was found to be 2.97. On the same count and under the same terms, under FYRLYQDLETHRLPTTSRCPRPCR [C15T] stands 2.

As for FYRLYLDLETHRLPCTSRCPRPCR [Q6L], the protein stability index was found to be 1.54. On the same count and under the same terms, as for FYRLYNDLETHRLPCTSRCPRPCR [Q6N], the figure is 2.28.

FYRLYQWLETHRLPCTSRCPRPCR [D7W]: the protein stability index came out at 3.
